Measured values taken from patent publication US20220193270A1, “METHOD FOR ENHANCING TUMOR GROWTH” (MINERVA BIOTECHNOLOGIES CORPORATION, priority 2013, published 2022).

Experiments:
[1] = test system: MUC1-positive T47D breast cancer cells; experiment: RT-PCR of cancer stem cell markers and chromatin rearrangement factors in T47D cells cultured in serum-free minimal media with agent; format: cell-based, human
Protocol: (§1) Example 3: Agents that are able to maintain stem cells in the naïve state transform cancer cells into cancer stem cells wherein only a small number of cells are required for engraftment. Cancer cells were cultured according to standard practice. In the controls, the cancer cells were cultured in their normal media: RPMI for T47D breast cancer cells, DU145 and PC3 prostate cancer cells. However, the test agents, recombinant proteins human NME1 dimers, bacterial HSP593 NME1 dimers, human NME7-AB and 2i, were added to a serum-free minimal media to eliminate potential interference from the many growth factors and cytokines in serum.
Serum-free Minimal Media 500 mL includes the following components: 394 mL DMEM/F12, GlutaMAX; 100 mL Knockout™ Serum Replacement; 5.0 mL 100×MEM Non-essential Amino Acid Solution; 0.9 mL P-mercaptoethanol, 55 mM stock.
(§2) To this serum-free minimal media, rhNME1 (aka NM23) was added to a final concentration of 8 nM, or bacterial HSP593 recombinant NME1 was added to a final concentration of 8 nM, or rhNME7-AB was added to a final concentration of 4 nM, or 2i inhibitors, PD0325901 and CHIR99021, which inhibit the MAP kinase pathway and GSK3, respectively, were added to a final concentration of 3 μM and 1 μM.
When a rho kinase inhibitor, “Ri” or “ROCi”, was added it was Y27632 from Stemgent (Cambridge, Mass.), added immediately before use to a final concentration of 10 uM.
Example 3a: Breast cancer T47D cells were cultured either in the traditional RPMI growth media or in a minimal stem cell media to which was added either human NME1 dimers, also known as NM23-H1, bacterial HSP593 NME1 dimers, human NME7-AB, or kinase inhibitors known as ‘2i’. What these agents have in common is that they are each able to promote the growth of stem cells in the naive state or are able to revert primed state stem cells to the less mature naive state. We observed that some of the T47D cancer cells cultured in any of these agents became non-adherent. These ‘floaters’ were also morphologically different. The addition of a rho kinase inhibitor, called ‘Ri’ or ‘ROCP here caused most of the cells to remain attached to the surface. […] When a rho kinase inhibitor is added, all the cells remain attached but the RT-PCR measurements indicate that the resultant measure is of a mixture of the cells that were transformed and those that were not or were not yet.
Example 3c: In this example, the effect of ‘2i’ inhibitors on cancer cells was tested. Recall that 2i is the name given to 2 small molecules, […] that inhibit the MAP kinase pathway and GSK3 respectively. […] In this experiment, we cultured MUCl-positive T47D breast cancer cells in minimal media to which was added either 2i or NME7-AB.

[2] = test system: DU145 MUC1-positive prostate cancer cells; experiment: RT-PCR of cancer stem cell markers in DU145 cells cultured with agent; format: cell-based, human; settings: after 9-10 passages; FIG. 11b
Protocol: as §1, §2
Example 3b: Prostate cancer cells were also cultured as described above with either human NME1 dimers, bacterial NME1 dimers, NME7-AB, or 2i inhibitors. […] Thus, the RT-PCR measurements of the cancer stem cell markers are lower than that of the T47D cells, which could be explained by it being the measure of transformed cells and non-transformed cells. In the case of breast cancer cells, we were able to isolate the fully transformed cancer stem cells by collecting the floating cells, but were not able to do so here. DU145 MUC1-positive prostate cancer cells were cultured in RPMI media as a control and in minimal media to which was added recombinant human NME1/NM23 dimers, bacterial HSP593 dimers, or human NME7-AB. […] There was about a 2-8-fold increase in OCT4, MUC1 and CDH1/E-cadherin. However, after serial passaging under these same culture conditions, the increases in expression of cancer stem cell markers became more pronounced. We reasoned that serial passaging allowed more time for cells to transform since we could not rapidly collect floating cells.

[3] = test system: PC3 MUC1-negative prostate cancer cells; experiment: RT-PCR of stem cell markers in PC3 cells cultured with agent; format: cell-based, human
Protocol: as §1, §2
PC3 MUCl-negative prostate cancer cells were also tested for their ability to transform into cancer stem cells when cultured in agents that are able to maintain stem cells in the naïve state. PC3 cells were cultured as described above with either human NME1 dimers, bacterial NME1 dimers or NME7-AB. […] Thus, the RT-PCR measurements of the cancer stem cell markers may be lower because measurements will be the average of transformed cells and non-transformed cells.

[4] = test system: Human HES-3 embryonic stem cells; experiment: Human embryonic stem cell culture with NME protein as only growth factor; format: cell-based; settings: serum-free minimal base media, agent as the only growth factor or cytokine
Description: Factors that are able to maintain stem cells in the naive state are also able to transform cells to a cancer-like or stem-like state and are also able to transform cancer cells to a cancer stem cell state or a more metastatic state. Herein, we have shown several examples of bacterial NME1 being able to function like human NME1 dimers, which are also able to function like NME7 or NME7-AB. However, the primary example that these factors function in a very similar way is their ability to promote the growth of stem cells, inhibit differentiation and maintain them in the naive state. […] Human HES-3 embryonic stem cells were cultured in a serum-free minimal base media with either HSP 593, human NME1 or NME7-dimers or human NME7-AB as the only growth factor or cytokine. […] Several examples have been presented here that indicate that contacting cells with an agent or agents that are able to revert stem cells from the primed state to the less mature naive state are also able to revert a wide variety of cell types to a less mature state: somatic cells to stem or progenitor cells or cancer cells to more metastatic state also called cancer stem cell state. Therefore, the invention is not meant to be limited to a specific cell type or a specific cancer cell type.

[5] = serum-free minimal media with agent vs RPMI, FIG. 6
[6] = summary statement, cells not named

B1: NME7-AB: recombinant human NME7 variant (A and B domains, SEQ ID NO:39) secreted as a monomer; 'NME7' in the experiments means this protein (protein)
chain: MEKTLALIKPDAISKAGEIIEIINKAGFTITKLKMMMLSRKEALDFHVDHQSRPFFNELIQFITTGPIIAMEILRDDAICEWKRLLGPANSGVARTDASESIRALFGTDGIRNAAHGPDSFASAAREMELFFPSSGGCGPANTAKFTNCTCCIVKPHAVSEGLLGKILMAIRDAGFEISAMQMFNMDRVNVEEFYEVYKGVVTEYHDMVTEMYSGPCVAMEIQQNNATKTFREFCGPADPEIARHLRPGTLRAIFGKTKIQNAVHCTDLPEDGLLEVQYFFKILDN
modifications: Human NME7-AB
notes: 'NME7' in the experiments means this protein
For B1, the “expression of NANOG, KLF2, KLF4 and TBX3” value ([1]; FIG. 6) was “modest increases”, the “expression of CDH1 (E-cadherin), MUC1 and NANOG” value ([1]; FIG. 7) was “increases” and the “expression of CXCR4, SOX2 and OCT4” value ([1]; FIG. 7) was “dramatic increases”. The “expression of stem cell markers KLF2 and KLF4” value ([1]; FIG. 7) was “modest increases”, the “expression level of the cancer stem cell markers” value ([1]; FIG. 9 and FIG. 10, combinations with 2i versus NME7-AB alone) was “even higher expression level” and the “expression of MBD3, CHD4, BRD4 and JMJD6” value ([1]; cancer cells cultured in agent, FIG. 13, FIG. 14) was “naturally suppressed”. For the same molecule, the “overexpression of metastasis receptor CXCR4” value ([1]; floaters after seven (7) days in recombinant human NME7-AB, FIG. 21 legend) was “more than 100 fold”, the “expression of CXCR4 over control cells cultured in RPMI media” value ([1]; floating cells after 7-10 days in minimal media with 4 nM rhNME7-AB, cells used for implantation) was 130 times and the “expression of chromatin rearrangement factors MBD3 and CHD4” value ([1]; minimal media with agent, FIG. 13, FIG. 14) was “suppressed expression”. For the same molecule, the “expression of metastatic receptor CXCR4 relative to T47D cells in normal growth media” value ([1]; serum-free minimal media with agent as single growth factor vs RPMI, FIG. 6) was roughly 200 times, the “CDH1 (E-cadherin) expression increase” value ([1]; serum-free minimal media with agent vs RPMI) was “about 10 fold” and the MUC1 expression increase [1, 5] was “about 10 fold”. The OCT4 expression increase [1, 5] was “about 50 times”, the SOX2 expression increase [1, 5] was roughly 200 times and the “up-regulation of CXCR4” value [1, 6] was 200 ×. For the same molecule, the “up-regulation of KLF4” value [1, 6] was 4 ×, the “up-regulation of MUC1” value [1, 6] was 10 × and the “up-regulation of SOX2” value [1, 6] was greater than 150 ×. The “expression of NANOG and OCT4” value [2] was “significant increases”, the “increase in the expression of CDH1/E-cadherin” value [2] was 9 fold and the “expression of stem cell markers SOX2, OCT4 and NANOG” value ([3]; after passage in agent, FIG. 12a) was “modest increases”. For the same molecule, the “expression of cancer stem cell or stem cell markers” value ([3]; serial passaging in the media, FIG. 12b) was “decreased” and the “support of human stem cell growth” value [4] was “fully supported human stem cell growth”.
